Laboratory results as given in IntAct's records for PubMed 18166655.

B1: Death-associated inhibitor of apoptosis 2 (Drosophila melanogaster (Fruit fly)), Q24307 (parent)
chain: MTELGMELESVRLATFGEWPLNAPVSAEDLVANGFFATGNWLEAECHFCHVRIDRWEYGDQVAERHRRSSPICSMVLAPNHCGNVPRSQESDNEGNSVVDSPESCSCPDLLLEANRLVTFKDWPNPNITPQALAKAGFYYLNRLDHVKCVWCNGVIAKWEKNDNAFEEHKRFFPQCPRVQMGPLIEFATGKNLDELGIQPTTLPLRPKYACVDARLRTFTDWPISNIQPASALAQAGLYYQKIGDQVRCFHCNIGLRSWQKEDEPWFEHAKWSPKCQFVLLAKGPAYVSEVLATTAANASSQPATAPAPTLQADVLMDEAPAKEALALGIDGGVVRNAIQRKLLSSGCAFSTLDELLHDIFDDAGAGAALEVREPPEPSAPFIEPCQATTSKAASVPIPVADSIPAKPQAAEAVANISKITDEIQKMSVATPNGNLSLEEENRQLKDARLCKVCLDEEVGVVFLPCGHLATCNQCAPSVANCPMCRADIKGFVRTFLS
partner: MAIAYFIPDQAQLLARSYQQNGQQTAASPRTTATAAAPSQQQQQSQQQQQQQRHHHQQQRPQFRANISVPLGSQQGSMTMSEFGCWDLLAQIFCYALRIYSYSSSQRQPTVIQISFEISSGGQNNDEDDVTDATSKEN
B2: Death-associated inhibitor of apoptosis 2 (Drosophila melanogaster (Fruit fly)), Q24307 (parent)
chain: B1 chain
partner: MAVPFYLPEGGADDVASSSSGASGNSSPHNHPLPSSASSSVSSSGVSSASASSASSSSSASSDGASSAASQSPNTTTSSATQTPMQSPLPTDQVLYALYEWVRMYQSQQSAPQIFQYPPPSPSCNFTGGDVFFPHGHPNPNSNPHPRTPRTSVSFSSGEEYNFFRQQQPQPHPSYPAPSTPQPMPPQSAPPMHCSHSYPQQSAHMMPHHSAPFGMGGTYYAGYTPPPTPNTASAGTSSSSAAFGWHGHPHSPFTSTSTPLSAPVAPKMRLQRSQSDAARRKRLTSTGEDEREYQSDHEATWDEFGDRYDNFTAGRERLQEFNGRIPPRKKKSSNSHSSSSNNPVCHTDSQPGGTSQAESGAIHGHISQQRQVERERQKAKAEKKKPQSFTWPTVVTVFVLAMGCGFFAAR

Variants of: B1
Details: with grim_drome grim

Variant	effect of a mutation on the interaction
MTELGMELESVRLATFGEWPLNAPVSAEDLVANGFFATGNWLEAECHFCHVRIDRWEYGDQVAERHRRSSPICSMVLAPNHCGNVPRSQESDNEGNSVVDSPESCSCPDLLLEANRLVTFKDWPNPNITPQALAKAGFYYLNRLDHVKCVWCNGVIAKWEKNDNAFEEHKRFFPQCPRVQMGPLIEFATGKNLDELGIQPTTLPLRPKYACVDARLRTFTDWPISNIQPASALAQAGLYYQKIGDQVRGFHCNIGLRSWQKEDEPWFEHAKWSPKCQFVLLAKGPAYVSEVLATTAANASSQPATAPAPTLQADVLMDEAPAKEALALGIDGGVVRNAIQRKLLSSGCAFSTLDELLHDIFDDAGAGAALEVREPPEPSAPFIEPCQATTSKAASVPIPVADSIPAKPQAAEAVANISKITDEIQKMSVATPNGNLSLEEENRQLKDARLCKVCLDEEVGVVFLPCGHLATCNQCAPSVANCPMCRADIKGFVRTFLS [C249G]	with no effect
MTELGMELESVRLATFGEWPLNAPVSAEDLVANGFFATGNWLEAECHFCHVRIDRWEYGDQVAERHRRSSPICSMVLAPNHCGNVPRSQESDNEGNSVVDSPESCSCPDLLLEANRLVTFKDWPNPNITPQALAKAGFYYLNRLDHVKGVWCNGVIAKWEKNDNAFEEHKRFFPQCPRVQMGPLIEFATGKNLDELGIQPTTLPLRPKYACVDARLRTFTDWPISNIQPASALAQAGLYYQKIGDQVRGFHCNIGLRSWQKEDEPWFEHAKWSPKCQFVLLAKGPAYVSEVLATTAANASSQPATAPAPTLQADVLMDEAPAKEALALGIDGGVVRNAIQRKLLSSGCAFSTLDELLHDIFDDAGAGAALEVREPPEPSAPFIEPCQATTSKAASVPIPVADSIPAKPQAAEAVANISKITDEIQKMSVATPNGNLSLEEENRQLKDARLCKVCLDEEVGVVFLPCGHLATCNQCAPSVANCPMCRADIKGFVRTFLS [C149G;C249G]	disrupting interaction strength
MTELGMELESVRLATFGEWPLNAPVSAEDLVANGFFATGNWLEAEGHFCHVRIDRWEYGDQVAERHRRSSPICSMVLAPNHCGNVPRSQESDNEGNSVVDSPESCSCPDLLLEANRLVTFKDWPNPNITPQALAKAGFYYLNRLDHVKCVWCNGVIAKWEKNDNAFEEHKRFFPQCPRVQMGPLIEFATGKNLDELGIQPTTLPLRPKYACVDARLRTFTDWPISNIQPASALAQAGLYYQKIGDQVRCFHCNIGLRSWQKEDEPWFEHAKWSPKCQFVLLAKGPAYVSEVLATTAANASSQPATAPAPTLQADVLMDEAPAKEALALGIDGGVVRNAIQRKLLSSGCAFSTLDELLHDIFDDAGAGAALEVREPPEPSAPFIEPCQATTSKAASVPIPVADSIPAKPQAAEAVANISKITDEIQKMSVATPNGNLSLEEENRQLKDARLCKVCLDEEVGVVFLPCGHLATCNQCAPSVANCPMCRADIKGFVRTFLS [C46G]	with no effect
MTELGMELESVRLATFGEWPLNAPVSAEDLVANGFFATGNWLEAECHFCHVRIDRWEYGDQVAERHRRSSPICSMVLAPNHCGNVPRSQESDNEGNSVVDSPESCSCPDLLLEANRLVTFKDWPNPNITPQALAKAGFYYLNRLDHVKGVWCNGVIAKWEKNDNAFEEHKRFFPQCPRVQMGPLIEFATGKNLDELGIQPTTLPLRPKYACVDARLRTFTDWPISNIQPASALAQAGLYYQKIGDQVRCFHCNIGLRSWQKEDEPWFEHAKWSPKCQFVLLAKGPAYVSEVLATTAANASSQPATAPAPTLQADVLMDEAPAKEALALGIDGGVVRNAIQRKLLSSGCAFSTLDELLHDIFDDAGAGAALEVREPPEPSAPFIEPCQATTSKAASVPIPVADSIPAKPQAAEAVANISKITDEIQKMSVATPNGNLSLEEENRQLKDARLCKVCLDEEVGVVFLPCGHLATCNQCAPSVANCPMCRADIKGFVRTFLS [C149G]	decreasing interaction strength

Variants of: B2
Details: with hid_drome hid

Variant	effect of a mutation on the interaction
MTELGMELESVRLATFGEWPLNAPVSAEDLVANGFFATGNWLEAECHFCHVRIDRWEYGDQVAERHRRSSPICSMVLAPNHCGNVPRSQESDNEGNSVVESPESCSCPDLLLEANRLVTFKDWPNPNITPQALAKAGFYYLNRLDHVKCVWCNGVIAKWEKNDNAFEEHKRFFPQCPRVQMGPLIEFATGKNLDELGIQPTTLPLRPKYACVDARLRTFTDWPISNIQPASALAQAGLYYQKIGDQVRCFHCNIGLRSWQKEDEPWFEHAKWSPKCQFVLLAKGPAYVSEVLATTAANASSQPATAPAPTLQADVLMDEAPAKEALALGIDGGVVRNAIQRKLLSSGCAFSTLDELLHDIFDDAGAGAALEVREPPEPSAPFIEPCQATTSKAASVPIPVADSIPAKPQAAEAVANISKITDEIQKMSVATPNGNLSLEEENRQLKDARLCKVCLDEEVGVVFLPCGHLATCNQCAPSVANCPMCRADIKGFVRTFLS [D100E]	with no effect

Variants of: B2
Details: with hid_drome hid
Remark: another data set of the same source

Variant	effect of a mutation on the interaction
MTELGMELESVRLATFGEWPLNAPVSAEDLVANGFFATGNWLEAECHFCHVRIDRWEYGDQVAERHRRSSPICSMVLAPNHCGNVPRSQESDNEGNSVVDSPESCSCPDLLLEANRLVTFKDWPNPNITPQALAKAGFYYLNRLDHVKCVWCNGVIAKWEKNDNAFEEHKRFFPQCPRVQMGPLIEFATGKNLDELGIQPTTLPLRPKYACVDARLRTFTDWPISNIQPASALAQAGLYYQKIGDQVRGFHCNIGLRSWQKEDEPWFEHAKWSPKCQFVLLAKGPAYVSEVLATTAANASSQPATAPAPTLQADVLMDEAPAKEALALGIDGGVVRNAIQRKLLSSGCAFSTLDELLHDIFDDAGAGAALEVREPPEPSAPFIEPCQATTSKAASVPIPVADSIPAKPQAAEAVANISKITDEIQKMSVATPNGNLSLEEENRQLKDARLCKVCLDEEVGVVFLPCGHLATCNQCAPSVANCPMCRADIKGFVRTFLS [C249G]	with no effect
MTELGMELESVRLATFGEWPLNAPVSAEDLVANGFFATGNWLEAECHFCHVRIDRWEYGDQVAERHRRSSPICSMVLAPNHCGNVPRSQESDNEGNSVVDSPESCSCPDLLLEANRLVTFKDWPNPNITPQALAKAGFYYLNRLDHVKGVWCNGVIAKWEKNDNAFEEHKRFFPQCPRVQMGPLIEFATGKNLDELGIQPTTLPLRPKYACVDARLRTFTDWPISNIQPASALAQAGLYYQKIGDQVRGFHCNIGLRSWQKEDEPWFEHAKWSPKCQFVLLAKGPAYVSEVLATTAANASSQPATAPAPTLQADVLMDEAPAKEALALGIDGGVVRNAIQRKLLSSGCAFSTLDELLHDIFDDAGAGAALEVREPPEPSAPFIEPCQATTSKAASVPIPVADSIPAKPQAAEAVANISKITDEIQKMSVATPNGNLSLEEENRQLKDARLCKVCLDEEVGVVFLPCGHLATCNQCAPSVANCPMCRADIKGFVRTFLS [C149G;C249G]	decreasing interaction strength
MTELGMELESVRLATFGEWPLNAPVSAEDLVANGFFATGNWLEAECHFCHVRIDRWEYGDQVAERHRRSSPICSMVLAPNHCGNVPRSQESDNEGNSVVDSPESCSCPDLLLEANRLVTFKDWPNPNITPQALAKAGFYYLNRLDHVKGVWCNGVIAKWEKNDNAFEEHKRFFPQCPRVQMGPLIEFATGKNLDELGIQPTTLPLRPKYACVDARLRTFTDWPISNIQPASALAQAGLYYQKIGDQVRCFHCNIGLRSWQKEDEPWFEHAKWSPKCQFVLLAKGPAYVSEVLATTAANASSQPATAPAPTLQADVLMDEAPAKEALALGIDGGVVRNAIQRKLLSSGCAFSTLDELLHDIFDDAGAGAALEVREPPEPSAPFIEPCQATTSKAASVPIPVADSIPAKPQAAEAVANISKITDEIQKMSVATPNGNLSLEEENRQLKDARLCKVCLDEEVGVVFLPCGHLATCNQCAPSVANCPMCRADIKGFVRTFLS [C149G]	with no effect
